The values that follow come from EP4737482A1 (Atheon Bio, Inc., dated 2026).

Assay [1] deals with T1, human MYCT1 (hMYCT1) (human, UniProt Q8N699 1-235, limits assumed).
T1 construct: also called MYC Target 1
T1 sequence: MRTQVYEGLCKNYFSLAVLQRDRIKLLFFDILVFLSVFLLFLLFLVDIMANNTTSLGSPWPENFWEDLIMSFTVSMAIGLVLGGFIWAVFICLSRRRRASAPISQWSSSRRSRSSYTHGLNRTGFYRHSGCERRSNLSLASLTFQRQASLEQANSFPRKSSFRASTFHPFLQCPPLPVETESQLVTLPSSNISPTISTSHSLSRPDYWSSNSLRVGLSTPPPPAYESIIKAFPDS
Briefly: SPR full kinetics (Biacore 8K), antibody captured via anti-human Fc IgG, MYCT1 as analyte, steady-state affinity model.

Assay [2] addresses T1, human MYCT1 (hMYCT1). Briefly: SPR (Biacore 8K), antibody captured via anti-human Fc IgG, MYCT1 as analyte, steady-state affinity model. A general note: In SPR one partner is held on a chip, and binding of the other changes the refractive index at the surface.
Assay [3] concerns the target T1, human MYCT1 (hMYCT1). The assay is described as above. The source holds these as a separate data set.
Assay [4] has as its target T1, human MYCT1 (hMYCT1). Nature of the assay: SPR full kinetics, multicycle, antibody captured via anti-human Fc IgG, MYCT1 0.625-10 nM as analyte, 1:1 binding model.
Assay [5] concerns the target T1, human MYCT1 (hMYCT1). Nature of the assay: SPR koff ranking, 1:1 binding model.
The target in assay [6] is T1, human MYCT1 (hMYCT1). Briefly: SPR koff ranking, single curve, antibody captured via anti-human Fc IgG, 10 nM MYCT1 as analyte, 1:1 binding model.

B1: 2B4 parent antibody (antibody, V domains shown)
VH: EVQLQQSGPELVKPGASVKMSCKASGYTFTDYNMHWVRQSHGKGLEWIGYINPNNGGSSYNRKFKGKATLTVNKSSRSASMELRSLTSEDSAVYYCATRFDVWGTGTTVTVSS
VL: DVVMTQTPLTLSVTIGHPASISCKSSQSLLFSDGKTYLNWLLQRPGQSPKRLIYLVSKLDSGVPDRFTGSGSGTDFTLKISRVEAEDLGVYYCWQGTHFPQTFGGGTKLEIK
notes: Mouse parental variable domains; also called parent antibody (2B4); 2B4 clone
In the case of B1, the figures for the Kd in the assay with human MYCT1 (hMYCT1) [1], in the assay with human MYCT1 (hMYCT1) [2] and with human MYCT1 (hMYCT1) [3] were 281 nM, 181 nM and 273 nM, respectively.

B2: 11B6 parent antibody (antibody, V domains shown)
VH: EVQLVESGGGLVKPGGSLKLSCAASGFTFSDFGIHWVRQAPEKGLEWVGYISSGSRTIHYADTVKGRFTISRDNAKNTLFLQMTNLRSEDTAIYYCARRDWDPEWLAYWGQGTLVTISA
VL: DVVMTQAPLSLPVSLGDQASISCRSSLSLVHSNGHTYLHWYLQKPGQSPKLLIYKVSNRFSGVPDRFSGSGSGTDFTLKIRRVEAEDLGVYFCSQSTHVPFTFGSGTKLEIK
notes: Mouse parental variable domains; also called parent antibody (11B6); 11B6 clone
For the molecule B2, in the assay with human MYCT1 (hMYCT1) [4], the Kd (as a rule, the free concentration of one partner at which half of the binding sites on the other are occupied at equilibrium, for simple one-to-one binding) is 1.2 nM; the koff (as a rule, the first-order rate constant of dissociation) amounted to 0.00411 s⁻¹; the kon (in general, the second-order rate constant of association) turned out to be 3.44e+06 M⁻¹ s⁻¹. In addition, the koff with human MYCT1 (hMYCT1) [5] is 0.00456 s⁻¹. The same molecule showed a koff with human MYCT1 (hMYCT1) [6] of 0.00496 s⁻¹.
